From patent CN102875678A (WUXI PROGRAMMED ARTIFICIAL MOLECULAR EVOLUTION CO LTD, dated 2013)
One block for each molecule: values may come before it.

What was measured:
[1] = target: hCD20 on B cell lines (Ramos, DHL-4, Daudi, Raji) (human) (UniProt P11836); test: cell-based or functional assay
[2] = target: T1, 重组人CD20蛋白 (human, UniProt P11836 1-297, limits assumed); test: Friguet method, full-length antibody and human CD20
T1 construct: also called hCD20
T1 sequence (looked up): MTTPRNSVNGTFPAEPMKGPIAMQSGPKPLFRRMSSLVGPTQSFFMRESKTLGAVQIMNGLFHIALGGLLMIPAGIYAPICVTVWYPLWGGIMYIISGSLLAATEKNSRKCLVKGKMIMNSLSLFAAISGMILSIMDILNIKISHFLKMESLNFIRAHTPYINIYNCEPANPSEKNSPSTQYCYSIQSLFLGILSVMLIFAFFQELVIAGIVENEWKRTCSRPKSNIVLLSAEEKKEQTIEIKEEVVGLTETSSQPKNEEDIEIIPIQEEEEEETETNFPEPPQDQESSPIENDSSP

[3] = target: 重组人CD20蛋白 (human) (UniProt P11836); test: Friguet method, Fab and human CD20 in solution, ELISA on immobilised human CD20
[4] = target: 重组人CD20蛋白 (human) (UniProt P11836); test: Friguet method, full-length antibody and human CD20

- Kd [3]: 1830 pM
Molecule: C2B8 Fab

- Kd [2]: 37 pM
B1: 全长8G3 (F8G3) (antibody)
chain 1: EVQLVESGGGLVQPGESLRLSCAGSGFTFNDYAMHWVRQMPGKGLEWVSTIYPW
chain 2: EIVLTQSPATLSLSPGERATLSCRASQFVGFYIHWYQQKPGQAPRLLIYAASERATGVPSRFSGSGSGTDFTLTISSLEPEDFAVYYCQQWLNNPFTFGQGTRLEII

Further lines, the molecule ahead of its results:

Molecule: 2F2 (即HuMax-CD20), full length (antibody)
- ADCC靶细胞裂解 (Raji细胞, MNC效应细胞, 51Cr释放) [1]: 35%
- CDC细胞裂解比例 (Daudi和Raji细胞, 10μg/ml抗体, 人血清) [1]: > 80%
- Kd [2]: 121 pM

Molecule: C2B8 (即Rituxan), full length (antibody)
- Kd [4]: 3510 pM
